Test [1] deals with T1, Murine CD73 on cells (4T1, Jurkat mCD73 knock-in) (murine, UniProt Q61503 29-551).
T1 sequence (looked up): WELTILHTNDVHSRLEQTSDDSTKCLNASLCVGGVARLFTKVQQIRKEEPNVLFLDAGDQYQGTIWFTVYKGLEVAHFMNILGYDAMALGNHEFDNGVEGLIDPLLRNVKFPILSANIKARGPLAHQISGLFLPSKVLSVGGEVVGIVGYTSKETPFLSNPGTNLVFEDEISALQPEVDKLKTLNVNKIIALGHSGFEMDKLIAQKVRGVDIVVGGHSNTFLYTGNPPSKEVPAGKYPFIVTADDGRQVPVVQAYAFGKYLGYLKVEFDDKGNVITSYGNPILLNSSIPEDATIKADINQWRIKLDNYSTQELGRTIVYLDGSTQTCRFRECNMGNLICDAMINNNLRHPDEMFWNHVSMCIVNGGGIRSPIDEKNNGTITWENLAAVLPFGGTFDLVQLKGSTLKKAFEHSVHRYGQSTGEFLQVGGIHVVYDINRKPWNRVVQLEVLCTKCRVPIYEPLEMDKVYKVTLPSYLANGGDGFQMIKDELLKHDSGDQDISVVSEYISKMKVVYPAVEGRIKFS
Nature of the test: cell-based or functional assay.

Test [2] has as its target T2, CD73 construct with chicken N- and C-terminal domain sequence with human V144 and N185 knocked in (chicken; human).
T2 chain: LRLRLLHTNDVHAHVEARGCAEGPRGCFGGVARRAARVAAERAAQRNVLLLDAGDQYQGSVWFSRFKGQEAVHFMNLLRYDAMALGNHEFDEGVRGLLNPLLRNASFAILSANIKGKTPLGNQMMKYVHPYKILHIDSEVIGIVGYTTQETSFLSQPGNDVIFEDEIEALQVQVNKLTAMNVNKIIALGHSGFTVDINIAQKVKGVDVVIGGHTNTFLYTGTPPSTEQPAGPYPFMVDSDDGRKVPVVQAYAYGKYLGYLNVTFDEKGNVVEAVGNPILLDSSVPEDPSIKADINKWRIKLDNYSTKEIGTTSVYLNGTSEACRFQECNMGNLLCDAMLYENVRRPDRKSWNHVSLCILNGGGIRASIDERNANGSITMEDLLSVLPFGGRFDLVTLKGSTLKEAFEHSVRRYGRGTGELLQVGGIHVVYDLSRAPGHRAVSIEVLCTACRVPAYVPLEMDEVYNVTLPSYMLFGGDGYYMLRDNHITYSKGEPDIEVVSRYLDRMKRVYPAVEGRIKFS
Nature of the test: SPR (ProteOn), CD73 variant immobilized. As to the method:
Binding of MEDI9447 to wild-type and mutant CD73 proteins was measured by surface plasmon resonance (SPR) using a ProteOn instrument (BioRad). CD73 crude cell supernatant protein samples were diluted to 3 µg/ml in PBS, 0.005% Tween-20, pH 7.4 (BioRad) and immobilized to ~400 RU on a HTG tris-NTA sensor chip (BioRad) pre-activated with 10 mM NiSO₄, 10 mM MES, pH 6.0 (BioRad). An equivalently diluted crude cell supernatant sample from non-transfected cells was included as a reference channel control. Sensorgrams were recorded by flowing two-fold dilutions of MEDI9447 prepared in PBS, 0.005% Tween-20, pH 7.4, ranging from 5 nM to 0.31 nM. […] Antibody binding was measured at a flow rate of 100 µL/min with a 3 min association phase and 20 min dissociation phase. The sensor chip surface was regenerated between each run by an 800 s injection of 300 mM EDTA, pH 8.5 (BioRad) at a flow rate of 30 µL/min. Binding kinetics were analyzed using the ProteOn data analysis software. Double referencing was performed and, unless noted otherwise, a 1:1 Langmuir binding model was utilized to fit the data. Some CD73 variants containing mutations within the amino acid region 171-188 fit poorly to a 1:1 model (i.e., Chi² values >10% of Rmax). Where noted, these variants were fit with a heterogenous antigen (2:1) model. […]

Test [3] deals with T1, Murine CD73 on cells (4T1, Jurkat mCD73 …). Briefly: flow cytometry, Jurkat (mCD73 knock-in) / Jurkat.
Test [4] has as its target T3, Human CD73 K180A, His-tagged (human, UniProt P21589 27-549).
T3 sequence: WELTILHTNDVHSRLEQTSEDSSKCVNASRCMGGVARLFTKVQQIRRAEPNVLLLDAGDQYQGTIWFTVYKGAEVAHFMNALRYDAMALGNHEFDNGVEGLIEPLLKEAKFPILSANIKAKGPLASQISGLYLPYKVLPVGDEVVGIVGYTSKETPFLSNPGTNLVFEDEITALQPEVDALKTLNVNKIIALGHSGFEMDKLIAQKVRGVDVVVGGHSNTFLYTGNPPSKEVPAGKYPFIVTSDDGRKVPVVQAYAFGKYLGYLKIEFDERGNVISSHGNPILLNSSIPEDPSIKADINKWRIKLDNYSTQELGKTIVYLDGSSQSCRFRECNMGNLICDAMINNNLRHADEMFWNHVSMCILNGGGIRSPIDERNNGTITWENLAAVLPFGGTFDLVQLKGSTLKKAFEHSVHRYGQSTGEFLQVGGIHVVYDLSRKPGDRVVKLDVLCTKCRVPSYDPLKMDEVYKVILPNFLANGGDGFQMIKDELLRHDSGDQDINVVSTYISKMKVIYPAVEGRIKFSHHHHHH
Nature of the test: SPR (ProteOn), CD73 variant immobilized on HTG chip. As to the method: Binding of MEDI9447 to wild-type and mutant CD73 proteins was measured by surface plasmon resonance (SPR) using a ProteOn instrument (BioRad). CD73 crude cell supernatant protein samples were diluted to 3 µg/ml in PBS, 0.005% Tween-20, pH 7.4 (BioRad) and immobilized to ~400 RU on a HTG tris-NTA sensor chip (BioRad) pre-activated with 10 mM NiSO₄, 10 mM MES, pH 6.0 (BioRad). An equivalently diluted crude cell supernatant sample from non-transfected cells was included as a reference channel control. Sensorgrams were recorded by flowing two-fold dilutions of MEDI9447 prepared in PBS, 0.005% Tween-20, pH 7.4, ranging from 5 nM to 0.31 nM. […] Antibody binding was measured at a flow rate of 100 µL/min with a 3 min association phase and 20 min dissociation phase. The sensor chip surface was regenerated between each run by an 800 s injection of 300 mM EDTA, pH 8.5 (BioRad) at a flow rate of 30 µL/min. Binding kinetics were analyzed using the ProteOn data analysis software. Double referencing was performed and, unless noted otherwise, a 1:1 Langmuir binding model was utilized to fit the data. Some CD73 variants containing mutations within the amino acid region 171-188 fit poorly to a 1:1 model (i.e., Chi² values >10% of Rmax). Where noted, these variants were fit with a heterogenous antigen (2:1) model. […] Due to the assay format (antigen immobilized) and the dimeric state of CD73, KD values may be exaggerated due to avidity effects. However, it is not anticipated that this impacts ranking of MEDI9447 binding to the different CD73 variants.

B1: MEDI9447 (antibody, human IgG1, lambda, V domains shown)
VH: EVQLLESGGGLVQPGGSLRLSCAASGFTFSSYAYSWVRQAPGKGLEWVSAISGSGGRTYYADSVKGRFTISRDNSKNTLYLQMNSLRAEDTAVYYCARLGYGRVDEWGRGTLVTVSS
VL: QSVLTQPPSASGTPGQRVTISCSGSLSNIGRNPVNWYQQLPGTAPKLLIYLDNLRLSGVPDRFSGSKSGTSASLAISGLQSEDEADYYCATWDDSHPGWTFGGGTKLTVLG
notes: Human IgG1-TM (L234F, L235E, P331S), lambda light chain; also called clone 10.3 antibody; 73combo3
Take B1: in test [1], the “FabZAP internalization, EC50, 4T1” value was determined as 0.0185 nM and the “FabZAP internalization, maximum toxicity, 4T1” value was 97%. Besides, binding in test [2] was characterised by a dissociation constant (Kd) of 0.079 nM. The “Mean Fluorescence Intensity Ratio (MFIR)” value in test [3] is 57.1. Moreover, in test [4], the koff (as a rule, the rate constant with which the complex falls apart) worked out at 0.000154 s⁻¹ and the kon (commonly the second-order rate constant of association) turned out to be 3.45e+06 M⁻¹ s⁻¹.

The record behind these values is patent publication US20230340152A1 (published 2023).
